# Results: patent publication US20200024352A1 (Eli Lilly, published 2020)
# T1: human Tim-3-Fc (R&D Systems) (human, UniProt Q8TDQ0 22-130)
# T1 construct: Bought reagent; Biotinylated in the phosphatidylserine assay, ruthenylated (sulfo-tag) in the galectin-9 assay, plain and plate-coated in the ELISA and the CEACAM1 assay; also called hTIM-3-Fc; hTIM-3-Fc Biotin; not shown: Fc part of the bought fusion protein
# T1 sequence: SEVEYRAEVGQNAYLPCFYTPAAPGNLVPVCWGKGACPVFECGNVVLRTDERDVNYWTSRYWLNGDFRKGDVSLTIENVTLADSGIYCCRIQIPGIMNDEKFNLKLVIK
# T2: human Tim-3, full-length, on cells (human, UniProt Q8TDQ0 22-301)
# T2 construct: whole, on cells; also called cell surface Tim-3
# T2 sequence (looked up): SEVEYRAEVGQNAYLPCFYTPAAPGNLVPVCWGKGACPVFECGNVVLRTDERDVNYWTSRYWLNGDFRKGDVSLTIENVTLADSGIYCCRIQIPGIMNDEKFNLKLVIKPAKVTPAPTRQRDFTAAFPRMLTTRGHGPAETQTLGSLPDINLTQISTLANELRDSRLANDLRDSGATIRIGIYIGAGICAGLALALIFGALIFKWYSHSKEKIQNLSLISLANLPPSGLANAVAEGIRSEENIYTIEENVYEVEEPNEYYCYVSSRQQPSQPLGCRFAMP
# T3: hTim-3-IgV-FLAG (human, UniProt Q8TDQ0 22-130, glycosylation at Asn99 (density seen in the crystal structure))
# T3 construct: Purified from 293HEK supernatant on anti-FLAG resin; also called hTim-3-FLAG; not shown: FLAG tag
# T3 sequence: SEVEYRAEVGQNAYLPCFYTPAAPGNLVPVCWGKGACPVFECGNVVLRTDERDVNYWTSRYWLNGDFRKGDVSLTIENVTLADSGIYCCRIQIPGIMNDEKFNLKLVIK
# B1: Antibody B (Anti-PD-L1 Antibody) (antibody, human IgG1, lambda, V domains shown)
# VH: QVQLVQSGAEVKKPGSSVKVSCKASGGTFSSYAISWVRQAPGQGLEWMGGIIPIFGTANYAQKFQGRVTITADKSTSTAYMELSSLRSEDTAVYYCARSPDYSPYYYYGMDVWGQGTTVTVSS
# VL: QSVLTQPPSASGTPGQRVTISCSGSSSNIGSNTVNWYQQLPGTAPKLLIYGNSNRPSGVPDRFSGSKSGTSASLAISGLQSEDEADYYCQSYDSSLSGSVFGGGIKLTVLG
# notes: Full IgG; also called Lilly PD-L1 antibody Antibody B; Antibody B-biotin
# B2: Antibody A (anti-Tim-3 Antibody) (antibody, human IgG1, kappa, V domains shown)
# VH: EVQLLESGGGLVQPGGSLRLSCAASGFTFSSYYMSWVRQAPGKGLEWVSAISGSGGSTYYADSVKGRFTISRDNSKNTLYLQMNSLRAEDTAVYYCARYARTAFDLWGQGTLVTVSS
# VL: DIVMTQSPSSLSASVGDGVTITCQASQDIYNYLNWYQQKPGKAPKLLIYAASSLQSGVPSRFSGSGSGTDFTLTISSLQPEDFATYYCQQANSFPPTFGQGTKLEIKR
# notes: Full IgG; also called anti-human Tim-3 antibody
# B3: Antibody A-Fab (Fab, V domains shown)
# VH: EVQLLESGGGLVQPGGSLRLSCAASGFTFSSYYMSWVRQAPGKGLEWVSAISGSGGSTYYADSVKGRFTISRDNSKNTLYLQMNSLRAEDTAVYYCARYARTAFDLWGQGTLVTVSS
# VL: DIVMTQSPSSLSASVGDGVTITCQASQDIYNYLNWYQQKPGKAPKLLIYAASSLQSGVPSRFSGSGSGTDFTLTISSLQPEDFATYYCQQANSFPPTFGQGTKLEIKR
# notes: Made by clipping Antibody A with immobilized papain; also called Fab for Antibody A
# Experiments:
# [1] = molecular target: T4, human PD-L1-Fc fusion protein (human, UniProt Q9NZQ7 19-239); experiment: blocking ELISA, B7-1-Fc on plate as competitor, biotinylated PD-L1-Fc
# T4 construct: also called human PD-L1-Fc (R&D Systems); biotinylated PD-L1-Fc fusion protein; not shown: Fc part
# T4 sequence (Q9NZQ7 19-239 limits assumed): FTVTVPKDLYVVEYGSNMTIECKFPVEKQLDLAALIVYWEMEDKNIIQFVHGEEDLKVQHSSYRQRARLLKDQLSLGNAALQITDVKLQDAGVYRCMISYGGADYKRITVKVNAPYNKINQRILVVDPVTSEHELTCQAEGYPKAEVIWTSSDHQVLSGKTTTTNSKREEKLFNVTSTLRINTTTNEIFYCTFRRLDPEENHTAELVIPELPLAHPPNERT
# [2] = molecular target: T5, cynomolgus monkey PD-L1-Fc fusion protein (cynomolgus monkey, UniProt G7PSE7 19-238); experiment: SPR, Biacore, Antibody B immobilized, cyno PD-L1-Fc as analyte, 37 C, 1:1 model
# T5 construct: also called Cyno PD-L1; not shown: Fc part
# T5 sequence (G7PSE7 entry or part of it): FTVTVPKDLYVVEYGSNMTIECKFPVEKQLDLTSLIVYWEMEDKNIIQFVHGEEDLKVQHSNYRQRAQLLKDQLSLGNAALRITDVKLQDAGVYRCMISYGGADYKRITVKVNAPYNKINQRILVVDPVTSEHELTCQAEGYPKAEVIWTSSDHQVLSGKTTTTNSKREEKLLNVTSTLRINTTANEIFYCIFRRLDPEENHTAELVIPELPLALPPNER
# [3] = molecular target: T4, human PD-L1-Fc fusion protein; experiment: blocking ELISA, PD-1-Fc on plate as competitor, biotinylated PD-L1-Fc
# [4] = molecular target: T4, human PD-L1-Fc fusion protein; experiment: ELISA, plate-coated human PD-L1-Fc
# [5] = molecular target: T6, cell surface PD-L1 on MDA-MB231 cells (human, UniProt Q9NZQ7 19-290); experiment: flow cytometry, Antibody B-biotin on MDA-MB231 cells, streptavidin-PE
# T6 construct: Endogenous PD-L1 of a PD-L1-positive human breast adenocarcinoma cell line; also called cell surface expressed human PD-L1
# T6 sequence (Q9NZQ7 19-290 limits assumed): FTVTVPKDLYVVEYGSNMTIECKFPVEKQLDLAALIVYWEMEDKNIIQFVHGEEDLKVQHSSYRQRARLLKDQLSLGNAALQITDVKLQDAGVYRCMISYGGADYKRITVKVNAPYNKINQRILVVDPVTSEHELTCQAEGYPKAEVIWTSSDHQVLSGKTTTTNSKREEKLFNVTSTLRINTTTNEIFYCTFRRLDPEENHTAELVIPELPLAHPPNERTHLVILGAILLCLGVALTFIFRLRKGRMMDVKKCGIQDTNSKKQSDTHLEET
# [6] = molecular target: T4, human PD-L1-Fc fusion protein; experiment: SPR, Biacore, Antibody B immobilized, PD-L1-Fc as analyte, 37 C, 1:1 model
# [7] = molecular target: T1, human Tim-3-Fc (R&D Systems); experiment: ELISA, plate-coated human Tim-3-Fc
# [8] = molecular target: T1, human Tim-3-Fc (R&D Systems); experiment: flow cytometry, block of hTIM-3-Fc Biotin binding to phosphatidylserine on camptothecin-treated DO11.10 cells
# [9] = molecular target: T1, human Tim-3-Fc (R&D Systems); experiment: MSD blocking assay, galectin-9-biotin on streptavidin plate as competitor, ruthenylated Tim-3-Fc
# [10] = molecular target: T7, human Tim-3-IgV-Fc single arm antigen (SAG) (human); experiment: SPR, Biacore T100, antibody captured on Human Fab Binder, Tim-3 SAG as analyte, 1:1 Langmuir with mass transport
# T7 construct: the SAG construct itself is not described further; also called Tim-3 SAG; not shown: Fc part of the antigen arm, any linker to it, and the second antigen-free Fc arm
# [11] = molecular target: T2, human Tim-3, full-length, on cells; experiment: flow cytometry, A488-labelled antibody on Tim-3 DO11.10 cells
# hTim-3-IgV-FLAG = molecular target: T3, hTim-3-IgV-FLAG; experiment: SPR, Biacore T200, Fab captured, hTim-3-IgV-FLAG as analyte, 25 C, 1:1 binding
binder,measurement,setting,value
B1,IC50,[1],2.4 nM
same,Kd,[2],0.122 nM
same,koff,[2],0.000184 s⁻¹
same,kon,[2],1.51e+06 M⁻¹ s⁻¹
same,IC50,[3],0.95 nM
same,EC50,[4],0.11 nM
same,EC50,[5],0.14 nM
same,Kd,[6],0.082 nM
same,koff,[6],0.000114 s⁻¹
same,kon,[6],1.4e+06 M⁻¹ s⁻¹
B2,EC50,[7],0.0207 nM
same,IC50,[8],0.32 nM
same,IC50,[9],5.6 nM
same,Kd,[10],0.398 nM
same,koff,[10],0.000927 s⁻¹
same,kon,[10],2.33e+06 M⁻¹ s⁻¹
same,EC50,[11],0.09 nM
B3,Kd,hTim-3-IgV-FLAG,7.92 nM
same,koff,hTim-3-IgV-FLAG,0.00286 s⁻¹
same,kon,hTim-3-IgV-FLAG,362000 M⁻¹ s⁻¹
